T1: human IL-1α (human, UniProt P01583 113-271)
T1 sequence (looked up): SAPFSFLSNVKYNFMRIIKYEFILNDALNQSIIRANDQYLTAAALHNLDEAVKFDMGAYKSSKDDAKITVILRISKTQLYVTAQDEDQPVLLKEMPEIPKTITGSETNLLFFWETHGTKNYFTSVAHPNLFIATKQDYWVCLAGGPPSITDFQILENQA


Experiments:
[1] = target: T2, human IL-1β (human, UniProt P01584 117-269); test: cell-based or functional assay
[2] = target: T2, human IL-1β; test: cell-based or functional assay; remark: listed apart in the source
[3] = target: T1, human IL-1α; test: BIAcore (refers to Example 9)
Experimental: Affinities and specificities of both Hu007 and Mu007 were determined using BIAcore measurements. BIAcore™ is an automated biosensor system that measures molecular interactions. (Karlsson, et al. (1991) J. Immunol. Methods 145: 229-240). In these experiments antibody was immobilized at low density on a BIAcoreTm chip. Ethyl-dimethylaminopropyl-carbodiimide (EDC) was used to couple reactive amino groups to purified goat anti-human IgG or oat anti-rabbit IgG to a flow cell of a carboxy-methyl (CM5) BIAcore™ sensor chip. Goat IgG was diluted in sodium cetate buffer, pH 4.0, and immobilized on a flow cell of a M5 chip using EDC to yield 1000 response units. Unreacted sites were blocked with ehanolamine. A flow rate of 60 μl/min was used. Multiple binding/elution cycles were performed by injection a 100 μl solution of 15 μg/mL Mu007 or Hu007 followed by human IL-1β, mouse IL-1β, rat IL-1β, cynomolgus monkey IL-1β, porcine IL-1β, human IL-1 receptor antagonist, and human IL-1α at decreasing concentrations for each cycle (e.g. 1500, 750, 375, 188, 94, 47, 23.5, 12, and 0 picomolar). Elution was performed with glycine-HCl, pH 1.5. BIAevaluation™ was used to analyze the kinetic data. Table 2 depicts the affinities of Hu007 and Mu007 for human and cynomolgus IL1β. […] Cynomolgus and porcein IL-1β had 100% binding to Hu007 relative to human IL-1β.

[4] = target: T2, human IL-1β; test: BIAcore, antibody immobilized at low density, ligand flowed (refers to Example 9)
Experimental: The binding affinity of the Mu007 antibody was determined using surface plasmon resonance (BIAcore™). In these experiments antibody was immobilized at low density on a BIAcore™ chip and ligand was flowed past. Build up of mass at the surface of the chip was measured. This analytical method allows the determination in real time of both on and off rates for binding. The Mu007 antibody has an affinity of approximately 6.0 picomolar (See Example 9). […] (See example 9). Hu007 comprises heavy and light chains that correspond to SEQ ID NO:17 and SEQ ID NO:13, respectively.
Affinities and specificities of both Hu007 and Mu007 were determined using BIAcore measurements. BIAcore™ is an automated biosensor system that measures molecular interactions. (Karlsson, et al. (1991) J. Immunol. Methods 145: 229-240). In these experiments antibody was immobilized at low density on a BIAcoreTm chip. Ethyl-dimethylaminopropyl-carbodiimide (EDC) was used to couple reactive amino groups to purified goat anti-human IgG or oat anti-rabbit IgG to a flow cell of a carboxy-methyl (CM5) BIAcore™ sensor chip. Goat IgG was diluted in sodium cetate buffer, pH 4.0, and immobilized on a flow cell of a M5 chip using EDC to yield 1000 response units. Unreacted sites were blocked with ehanolamine. A flow rate of 60 μl/min was used. […]

[5] = target: T2, human IL-1β; test: ELISA competition on coated human IL-1β, competitor biotinylated Mu007
Experimental: (§1) Wells of 96-well ELISA plates (Nunc-Immuno plate, Cat # 439454, NalgeNunc) were coated with 100 μμl of 0.5 μg/ml of human IL-1β in 0.2M sodium carbonate-bicarbonate buffer (pH 9.4) overnight at 4° C., washed with Wash Buffer, blocked with Superblock blocking buffer for 30 min at 37° C., and washed again with Wash Buffer. A mixture of biotinylated Mu007 (0.16 μg/ml final concentration) and competitor antibody (Mu007 or Hu007; starting at 100 μg/ml final concentration and serial 3-fold dilutions) in ELISA Buffer were added in triplicate in a final volume of 100 μl per well. As a no-competitor control, 100 μl of 0.16 μg/ml biotinylated Mu007 was used. As a background control, 100 μl of ELISA Buffer was used. ELISA plates were incubated at 37° C. for 2 hr. After washing the wells with Washing Buffer, 100 μl of 1 μg/ml HRP-conjugated streptavidin (Jackson ImmunoResearch) was added to each well. ELISA plates were incubated at room temperature for 30 min and washed with Washing Buffer. For color development, 100 μl/well of ABTS substrate was added. Color development was stopped by adding 100 μl/well of 2% oxalic acid. Absorbance was read at 415 nm.
(§2) Both Mu007 and Hu007 competed with biotinylated Mu007 in a concentration-dependent manner. […]

[6] = target: T2, human IL-1β; test: ELISA competition on coated human IL-1β, competitor biotinylated Mu007, Exp. A
Experimental: as §1, §2

[7] = target: T2, human IL-1β; test: ELISA competition on coated human IL-1β, competitor biotinylated Mu007, Exp. C
Experimental: as §1, §2

[8] = target: T2, human IL-1β; test: ELISA competition on coated human IL-1β, competitor biotinylated Mu007, Exp. B
Experimental: as §1, §2

[9] = target: T2, human IL-1β; test: ELISA competition on coated human IL-1β, competitor biotinylated Mu007, average
Experimental: as §1, §2

Row | inhibition of IL-1β stimulated proliferation of T1165.17 cells (3H-thymidine incorporation), average IC50 from three separate experiments [1] [nM] | IC50 (read off the curve) [2] [nM] | binding result [3] | Kd [4] [nM] | neutralization of human IL-1β in the murine model of inflammatory stimulation, relative to Mu007 [1] | relative binding, fold less than that of Mu007 [5] [fold] | Difference (IC50 of Hu007 against IC50 of Mu007) [6] [ratio] | Difference (IC50 of Hu007 against IC50 of Mu007) [7] [ratio] | Difference (IC50 of Hu007 against IC50 of Mu007) [8] [ratio] | Difference (IC50 of Hu007 against IC50 of Mu007) [9] [ratio] | Binder
1 | 0.22 | ~0.2 | no binding | ~0.006 |  |  |  |  |  |  | mouse monoclonal antibody Mu007 (antibody, V domains shown) VH: QVQLVQSGAEVKKPGASVKVSCKVSGYTFSRYWIEWVRQAPGKGLEWIGEILPGNGNINYNEKFKGKATITADTSTDTAYMELSSLRSEDTAVYYCSTIYYDYDQGFTYWGQGTLVTVSA VL: DIKMTQSPSSMYASLGERVTITCKASQDIDRYLSWFQQKPGKSPKTLIYRVKRLVDGVPSRFSGSASGQDYSLTISSLQYEDMGIYYCLQYDEFPYTFGGGTKLEIK
2 | 0.48 | ~0.4 |  | 0.01 to 0.02 | ~0.33 fold of Mu007 | 1.3 | 0.98 | 0.82 | 0.88 | 0.89 | humanized antibody Hu007 (antibody, human IgG1, kappa, V domains shown, the listing entries may be nucleotide entries with a translation; also called Hu007 IgG1 monoclonal antibody) VH: QVQLVQSGAEVKKPGASVKVSCKVSGYTFSRYWIEWVRQAPGKGLEWIGEILPGNGNINYNEKFKGKATITADTSTDTAYMELSSLRSEDTAVYYCSTIYYDYDQGFTYWGQGTLVTVSS VL: DIQMTQSPSSLSASVGDRVTITCKASQDIDRYLSWFQQKPGKAPKSLIYRVKRLVDGVPSRFSGSASGTDYTLTISSLQPEDFATYYCLQYDEFPYTFGQGTKLEIKR

Source: patent US20050075488A1 (published 2005)
